Results taken from patent US12630600B2 (MEDIMMUNE LIMITED, priority 2022, dated 2026).
Starred links: 1 amine or outer side, 2 acyl side, 3 side chain; linkers in the order of their positions; H or OH if unused. Non-standard residues stand in square brackets, D forms with d. Groups on a side chain read outwards from the residue. No end group written: not given here. *: point of attachment. C18 diacid = O=C(O)CCCCCCCCCCCCCCCCC(=O)*; γGlu = O=C(O)[C@H](CCC(=O)[*:2])N[*:1]; αMeF = C[C@](N)(Cc1ccccc1)C(=O)O; AEEA = NCCOCCOCC(=O)O; Aib = CC(C)(N)C(=O)O

B1: Peptide 144 (peptide)
peptide: H[Aib]QGTFTSDVSK[αMeF]LDSK([γGlu-γGlu-AEEA-AEEA-γGlu-γGlu-C18 diacid])RARDFVRWLLE[Aib]G-OH
modifications: N-terminus assumed
SMILES: CC(C)C[C@H](NC(=O)[C@H](Cc1c[nH]c2ccccc12)NC(=O)[C@H](CCCNC(=N)N)NC(=O)[C@@H](NC(=O)[C@H](Cc1ccccc1)NC(=O)[C@H](CC(=O)O)NC(=O)[C@H](CCCNC(=N)N)NC(=O)[C@H](C)NC(=O)[C@H](CCCNC(=N)N)NC(=O)[C@H](CCCCNC(=O)CC[C@H](NC(=O)CC[C@H](NC(=O)COCCOCCNC(=O)COCCOCCNC(=O)CC[C@H](NC(=O)CC[C@H](NC(=O)CCCCCCCCCCCCCCCCC(=O)O)C(=O)O)C(=O)O)C(=O)O)C(=O)O)NC(=O)[C@H](CO)NC(=O)[C@H](CC(=O)O)NC(=O)[C@H](CC(C)C)NC(=O)[C@](C)(Cc1ccccc1)NC(=O)[C@H](CCCCN)NC(=O)[C@H](CO)NC(=O)[C@@H](NC(=O)[C@H](CC(=O)O)NC(=O)[C@H](CO)NC(=O)[C@@H](NC(=O)[C@H](Cc1ccccc1)NC(=O)[C@@H](NC(=O)CNC(=O)[C@H](CCC(N)=O)NC(=O)C(C)(C)NC(=O)[C@@H](N)Cc1c[nH]cn1)[C@@H](C)O)[C@@H](C)O)C(C)C)C(C)C)C(=O)N[C@@H](CC(C)C)C(=O)N[C@@H](CCC(=O)O)C(=O)NC(C)(C)C(=O)NCC(=O)O
B2: Peptide 145 (peptide)
peptide: H[Aib]QGTFTSDVSK[αMeF]LDSK([AEEA-AEEA-γGlu-C18 diacid])RAQDFVRWLASRGI-OH
modifications: N-terminus assumed
SMILES: CC[C@H](C)[C@H](NC(=O)CNC(=O)[C@H](CCCNC(=N)N)NC(=O)[C@H](CO)NC(=O)[C@H](C)NC(=O)[C@H](CC(C)C)NC(=O)[C@H](Cc1c[nH]c2ccccc12)NC(=O)[C@H](CCCNC(=N)N)NC(=O)[C@@H](NC(=O)[C@H](Cc1ccccc1)NC(=O)[C@H](CC(=O)O)NC(=O)[C@H](CCC(N)=O)NC(=O)[C@H](C)NC(=O)[C@H](CCCNC(=N)N)NC(=O)[C@H](CCCCNC(=O)COCCOCCNC(=O)COCCOCCNC(=O)CC[C@H](NC(=O)CCCCCCCCCCCCCCCCC(=O)O)C(=O)O)NC(=O)[C@H](CO)NC(=O)[C@H](CC(=O)O)NC(=O)[C@H](CC(C)C)NC(=O)[C@](C)(Cc1ccccc1)NC(=O)[C@H](CCCCN)NC(=O)[C@H](CO)NC(=O)[C@@H](NC(=O)[C@H](CC(=O)O)NC(=O)[C@H](CO)NC(=O)[C@@H](NC(=O)[C@H](Cc1ccccc1)NC(=O)[C@@H](NC(=O)CNC(=O)[C@H](CCC(N)=O)NC(=O)C(C)(C)NC(=O)[C@@H](N)Cc1c[nH]cn1)[C@@H](C)O)[C@@H](C)O)C(C)C)C(C)C)C(=O)O
B3: Peptide 146 (peptide)
peptide: H[Aib]QGTFTSDVSK[αMeF]LDSK([AEEA-AEEA-γGlu-C18 diacid])RAQDFVRWLASR-OH
modifications: N-terminus assumed
SMILES: CC(C)C[C@H](NC(=O)[C@H](Cc1c[nH]c2ccccc12)NC(=O)[C@H](CCCNC(=N)N)NC(=O)[C@@H](NC(=O)[C@H](Cc1ccccc1)NC(=O)[C@H](CC(=O)O)NC(=O)[C@H](CCC(N)=O)NC(=O)[C@H](C)NC(=O)[C@H](CCCNC(=N)N)NC(=O)[C@H](CCCCNC(=O)COCCOCCNC(=O)COCCOCCNC(=O)CC[C@H](NC(=O)CCCCCCCCCCCCCCCCC(=O)O)C(=O)O)NC(=O)[C@H](CO)NC(=O)[C@H](CC(=O)O)NC(=O)[C@H](CC(C)C)NC(=O)[C@](C)(Cc1ccccc1)NC(=O)[C@H](CCCCN)NC(=O)[C@H](CO)NC(=O)[C@@H](NC(=O)[C@H](CC(=O)O)NC(=O)[C@H](CO)NC(=O)[C@@H](NC(=O)[C@H](Cc1ccccc1)NC(=O)[C@@H](NC(=O)CNC(=O)[C@H](CCC(N)=O)NC(=O)C(C)(C)NC(=O)[C@@H](N)Cc1c[nH]cn1)[C@@H](C)O)[C@@H](C)O)C(C)C)C(C)C)C(=O)N[C@@H](C)C(=O)N[C@@H](CO)C(=O)N[C@@H](CCCNC(=N)N)C(=O)O

Key:
human GLP-1 receptor = human GLP-1 receptor (human, UniProt P43220); assay: cell-based or functional assay
human glucagon receptor = human glucagon receptor (human, UniProt P47871); assay: cell-based or functional assay

Binder | cAMP production, hGLP-1R EC50 (pM) (human GLP-1 receptor) | cAMP production, hGluc-R EC50 (pM) (human glucagon receptor)
B1 | 45.2 | 702
B2 | 22.6 | 4590
B3 | 24.6 | 1630
